Assay results from the supplement of paper PMC10724198.
± gives the standard deviation of the averaged measurements.

Test system: Saccharomyces cerevisiae
Experiment: protein stability index of tFT-peptide fusion (C-terminal peptide) (PSI (0-1 scale)); higher = more stable (slower turnover)
Settings: genetic background: wild type; temperature: 30 C
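Further: PSI is a weighted mean of sequencing reads over stability bins, variants kept only with over 10 reads, mCherry proximal and sfGFP distal, peptide attached via GGGS linker.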

Row | Sequence | protein stability index
1 | RLPVPRSLWSSN | 0.709 ± 0.013
2 | LWPLPSASVILL | 0.515 ± 0.12
3 | LFTFEADKCDLT | 0.774 ± 0.092
4 | LPPPPSPLPPRP | 0.627 ± 0.048
5 | MGGTGRGGRREI | 0.667 ± 0.04
6 | RLGLVITKLGVY | 0.541 ± 0.0081
7 | QTMYFLRKEKEN | 0.696 ± 0.063
8 | GGTGFMHSVDYG | 0.644 ± 0.0089
9 | NSSLSLPFGPPP | 0.69 ± 0.011
10 | GAVWLLFCGGVG | 0.555 ± 0.024
11 | PLLEGRRRKSGG | 0.635 ± 0.02
12 | KINKNMDYKYQK | 0.673 ± 0.095
13 | GCLGDRVKSPIV | 0.638 ± 0.068
14 | FAPSPVPPLAPF | 0.682 ± 0.053
15 | PSSRPPMSPIDT | 0.694 ± 0.018
16 | HRVRICWVPRSR | 0.674 ± 0.027
17 | TNTPVYRQAPQM | 0.657 ± 0.02
18 | RYCSLARSCPSG | 0.678 ± 0.027
19 | KQAPTLFLSFIL | 0.5885 ± 0.0028
20 | PPFVSPQRQRLV | 0.669 ± 0.019
21 | AYRKQGRGERKG | 0.65 ± 0.011
22 | PPPAPSPPPSPP | 0.611 ± 0.0099
23 | PSTLPSHRVPLK | 0.68 ± 0.041
24 | RLFSPFTLPPFF | 0.739 ± 0.063
25 | PLSPPPLPFPLL | 0.589 ± 0.0018
26 | RERVQYICYERR | 0.695 ± 0.086

Row | Sequence | protein stability index
27 | GGGGPGGLVGAA | 0.662 ± 0.035
28 | AAGEGSAPTRDR | 0.672 ± 0.028
29 | RGPKDNGGSETS | 0.713 ± 0.078
30 | GQMDGGMGGKVI | 0.582 ± 0.062
31 | PHATPPPTRPPS | 0.777 ± 0.062
32 | GWDCKGNDCWNG | 0.693 ± 0.055
33 | CGLVGVALSEGV | 0.65 ± 0.086
34 | KKTRGNNGKTQR | 0.631 ± 0.0076
35 | RARARSVLGRRD | 0.672 ± 0.0091
36 | MWPCRVRWLDHW | 0.73 ± 0.034
37 | GLGLGGRGMRVV | 0.687 ± 0.018
38 | AARYSRSPRTCF | 0.6507 ± 0.0059
39 | IIQTTKPTRNIK | 0.67 ± 0.022
40 | GLWSWFLCYEFY | 0.657 ± 0.02
41 | LSIGDLTIEKKL | 0.686 ± 0.022
42 | LFFSLSLVVPTG | 0.633 ± 0.095
43 | HSPSHPGSPHAC | 0.7 ± 0.033
44 | LLPLPCPPFPHS | 0.674 ± 0.024
45 | SLHPSPPPLLPP | 0.642 ± 0.093
46 | KKQAVRVEIIGR | 0.655 ± 0.018
47 | KVSTWKISRISG | 0.55 ± 0.026
48 | PPPRPRPSSRSI | 0.71 ± 0.016
49 | RNNLSLALPREW | 0.725 ± 0.018
50 | STDNNLISEPKT | 0.731 ± 0.097
51 | LGGRWVLGVRGV | 0.694 ± 0.029
52 | RLATRPILDLPP | 0.519 ± 0.026

Row | Sequence | protein stability index
53 | AVWLVVRGVRGR | 0.679 ± 0.034
54 | YFPSSTLPPPVP | 0.675 ± 0.029
55 | HPDPSPPTKPPP | 0.68 ± 0.031
56 | SPPPIPPPPPSR | 0.726 ± 0.042
57 | GGGGGWGGGGGG | 0.7 ± 0.087
58 | VRCRLLDVGDAS | 0.642 ± 0.026
59 | QTSWLKKTIKRE | 0.678 ± 0.072
60 | NFGLYGAPFTLG | 0.665 ± 0.041
61 | TYSPPSPTPPAR | 0.656 ± 0.055
62 | GYLNCFGYVWGP | 0.653 ± 0.04
63 | TNSPTVSGCLQQ | 0.716 ± 0.07
64 | LFLLYPRLTLPL | 0.621 ± 0.023
65 | APKLWLPYTCQS | 0.705 ± 0.059
66 | CFAPRAPIRRFF | 0.733 ± 0.032
67 | NPPCPYPPLRPR | 0.595 ± 0.044
68 | NLINPCRRPPVP | 0.648 ± 0.088
69 | IFPNSGKIEVLA | 0.574 ± 0.016
70 | TDLSPFPALFSL | 0.766 ± 0.15
71 | GGCVVGTGRRRY | 0.6114 ± 0.0061
72 | PFLHQRLLDSVL | 0.726 ± 0.1
73 | APDPTIPYSPTP | 0.717 ± 0.028
74 | SPPRLPTPPPLR | 0.705 ± 0.022
75 | LPPPRPLPIPSP | 0.711 ± 0.047
76 | LKHHDSNESASR | 0.651 ± 0.1
77 | SVVRKDNKLHTV | 0.596 ± 0.035
78 | SVGGSLFLGRRG | 0.68 ± 0.072

Row | Sequence | protein stability index
79 | PPPRFRPLPLRA | 0.5935 ± 0.0019
80 | VHSSWRVAACGK | 0.698 ± 0.031
81 | GGGGTGTSGQGR | 0.718 ± 0.046
82 | FPRPSLPFPPHR | 0.609 ± 0.00064
83 | GQNGFVDGGCVL | 0.677 ± 0.0081
84 | PHASLLPPSLSR | 0.728 ± 0.0085
85 | KSARSYSMEGEI | 0.673 ± 0.016
86 | VVSKMGFGAALV | 0.654 ± 0.085
87 | NNLSPLPGPSLI | 0.713 ± 0.018
88 | SGHELLGSVFRR | 0.681 ± 0.076
89 | KTRHRQKDVTTH | 0.713 ± 0.055
90 | VRAEVSNVDYVS | 0.658 ± 0.0096
91 | WRSGGGGGPAGV | 0.6762 ± 0.0032
92 | AGGRSVCGSALP | 0.661 ± 0.016
93 | CCSLIPRAPSGR | 0.687 ± 0.051
94 | GSGWRLLLGLVR | 0.5731 ± 0.0022
95 | TKRKKKTQEGSR | 0.698 ± 0.045
96 | RKVHNVETQITA | 0.648 ± 0.018
97 | STGLDPAAGAHL | 0.657 ± 0.06
98 | GDGSNVSLFILF | 0.784 ± 0.13
99 | VGSSRRGCSGAE | 0.685 ± 0.024
100 | LWVGSGGARCVV | 0.624 ± 0.03
101 | VVVCGSSVLVLT | 0.555 ± 0.041
